Legend:
[1] = target: T1, recombinant soluble CD30 (sCD30) produced in E. coli (human); assay: indirect ELISA, sCD30 coated
T1 sequence: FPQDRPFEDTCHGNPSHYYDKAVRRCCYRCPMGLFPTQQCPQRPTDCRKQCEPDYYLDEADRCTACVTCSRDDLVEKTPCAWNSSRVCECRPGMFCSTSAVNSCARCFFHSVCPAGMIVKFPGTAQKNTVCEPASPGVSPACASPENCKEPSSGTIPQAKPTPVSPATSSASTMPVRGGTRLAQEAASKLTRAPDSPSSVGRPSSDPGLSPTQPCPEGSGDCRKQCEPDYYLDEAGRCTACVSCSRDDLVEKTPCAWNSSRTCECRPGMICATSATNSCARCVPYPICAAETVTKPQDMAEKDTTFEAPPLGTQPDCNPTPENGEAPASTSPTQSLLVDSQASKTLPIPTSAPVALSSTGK

CD30-Fc (human) = target: T2, CD30-Fc (human); assay: indirect ELISA, CD30-Fc coated
T2 sequence: T1 sequence

[2] = target: human CD30, native, expressed on cells (human); assay: FACS, L428 cells, MAb 5 µg/ml, control HeFi-I
[3] = target: human CD30, native, expressed on cells (human); assay: FACS, L540 cells, MAb 5 µg/ml, control HeFi-I
[4] = target: human CD30, native, expressed on cells (human); assay: competitive FACS on L540 cells, unlabeled MAb 2.5 µg/ml; competitor: biotin-T6
[5] = target: human CD30, native, expressed on cells (human); assay: competitive FACS on L540 cells, unlabeled MAb 2.5 µg/ml; competitor: biotin-T14
[6] = target: human CD30, native, expressed on cells (human); assay: competitive FACS on L540 cells, unlabeled MAb 2.5 µg/ml; competitor: biotin-T24
[7] = target: human CD30, native, expressed on cells (human); assay: competitive FACS on L540 cells, unlabeled MAb 2.5 µg/ml; competitor: biotin-T25
[8] = target: human CD30, native, expressed on cells (human); assay: competitive FACS on L540 cells, unlabeled MAb 2.5 µg/ml; competitor: biotin-HRS-4
[9] = target: human CD30, native, expressed on cells (human); assay: competitive FACS on L540 cells, unlabeled MAb 2.5 µg/ml; competitor: biotin-HeFi-I
[10] = target: transferrin receptor on L540 cells (UniProt P02786); assay: cell-based or functional assay
transferrin receptor on L540 cells, sequence (P02786 whole entry): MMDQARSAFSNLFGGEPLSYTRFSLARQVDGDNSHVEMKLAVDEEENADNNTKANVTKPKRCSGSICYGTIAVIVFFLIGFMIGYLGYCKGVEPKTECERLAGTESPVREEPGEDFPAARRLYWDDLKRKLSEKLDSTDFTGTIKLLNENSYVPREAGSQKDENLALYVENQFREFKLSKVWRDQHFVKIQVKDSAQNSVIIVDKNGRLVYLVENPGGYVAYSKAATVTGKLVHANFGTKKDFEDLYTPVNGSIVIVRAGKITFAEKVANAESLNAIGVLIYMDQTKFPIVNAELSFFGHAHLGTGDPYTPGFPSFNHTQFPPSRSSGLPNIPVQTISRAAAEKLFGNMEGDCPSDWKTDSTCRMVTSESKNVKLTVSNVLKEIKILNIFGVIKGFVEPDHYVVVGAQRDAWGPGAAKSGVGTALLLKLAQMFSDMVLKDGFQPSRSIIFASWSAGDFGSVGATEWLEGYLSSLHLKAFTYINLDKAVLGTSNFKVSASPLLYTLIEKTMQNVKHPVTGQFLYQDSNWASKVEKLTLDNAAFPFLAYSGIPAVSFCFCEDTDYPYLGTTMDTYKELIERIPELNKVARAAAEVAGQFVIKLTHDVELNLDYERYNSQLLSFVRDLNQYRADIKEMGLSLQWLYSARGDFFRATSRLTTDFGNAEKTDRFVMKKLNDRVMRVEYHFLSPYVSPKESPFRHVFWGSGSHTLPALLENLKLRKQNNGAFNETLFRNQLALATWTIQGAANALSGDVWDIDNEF

[11] = target: human CD30, native, expressed on cells (human); assay: FACS, L428 cells, control HeFi-I
[12] = target: human CD30, native, expressed on cells (human); assay: FACS, L540 cells, control HeFi-I

HB21(scFv)-PE40, sequence (P11439 278-638): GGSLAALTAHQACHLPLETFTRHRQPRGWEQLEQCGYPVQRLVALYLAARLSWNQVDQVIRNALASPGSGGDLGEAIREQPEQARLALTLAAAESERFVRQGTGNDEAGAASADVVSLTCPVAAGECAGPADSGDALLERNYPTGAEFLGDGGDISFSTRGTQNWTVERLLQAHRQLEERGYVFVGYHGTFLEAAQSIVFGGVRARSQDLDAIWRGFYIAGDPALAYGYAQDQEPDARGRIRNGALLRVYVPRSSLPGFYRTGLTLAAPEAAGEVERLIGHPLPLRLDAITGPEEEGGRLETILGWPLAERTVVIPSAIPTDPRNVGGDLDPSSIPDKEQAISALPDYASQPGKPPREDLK

Substance	titer in ELISA [1] [mL/µg]	titer in ELISA (CD30-Fc (human)) [mL/µg]	relative reactivity in FACS (% of control) [2]	relative reactivity in FACS (% of control) [3]	inhibition of the binding of biotin-MAb (%) [4] [%]	inhibition of the binding of biotin-MAb (%) [5] [%]	inhibition of the binding of biotin-MAb (%) [6] [%]	inhibition of the binding of biotin-MAb (%) [7] [%]	inhibition of the binding of biotin-MAb (%) [8] [%]	inhibition of the binding of biotin-MAb (%) [9] [%]	IC50 (ng/ml) in cytotoxicity test, A431/CD25 cells [10] [ng/mL]	IC50 (ng/ml) in cytotoxicity test, A431/CD30 cells [10] [ng/mL]	IC50 (ng/ml) in cytotoxicity test, HUT102W cells [10] [ng/mL]	IC50 (ng/ml) in cytotoxicity test, SUDHL-1 cells [10] [ng/mL]	IC50 (ng/ml) in cytotoxicity test, SUP-M2 cells [10] [ng/mL]	relative reactivity in FACS (% of control) [11]	relative reactivity in FACS (% of control) [12]
Ber-H2 MAb (antibody)	50	75	160 % of control	111 % of control	75.6	108	18.2	23.3	80.3	0	–	–	–	–	–	–	–
HB21(scFv)-PE40 (from UniProt P11439 278-638)	–	–	–	–	–	–	–	–	–	–	0.03	0.02	1.5	0.05	0.02	–	–
HRS-4 MAb (antibody)	–	50	–	–	87.4	108	3.9	25	82.6	0	–	–	–	–	–	–	–
control mouse IgG1 (antibody)	–	–	–	–	–	–	–	–	–	–	–	–	–	–	–	16 % of control	0.2 % of control

Source: patent US20060193771A1
